One molecule from publication PMC10359629, “Thumb-domain dynamics modulate the functional repertoire of DNA-Polymerase IV (DinB)” can be followed below.

One data set addresses T1, DinB (DNA polymerase IV) (Escherichia coli, UniProt Q47155 1-351).
T1 sequence: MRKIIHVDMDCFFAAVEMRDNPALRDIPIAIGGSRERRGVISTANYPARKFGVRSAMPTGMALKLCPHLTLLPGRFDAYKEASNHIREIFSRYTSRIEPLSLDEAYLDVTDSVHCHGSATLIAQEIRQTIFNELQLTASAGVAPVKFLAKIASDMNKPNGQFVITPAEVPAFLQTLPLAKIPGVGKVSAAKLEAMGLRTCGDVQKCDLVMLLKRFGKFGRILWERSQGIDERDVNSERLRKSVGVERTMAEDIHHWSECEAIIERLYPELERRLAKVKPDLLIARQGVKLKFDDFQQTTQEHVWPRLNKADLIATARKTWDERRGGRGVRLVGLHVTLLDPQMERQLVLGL
Put plainly: NMR titration; BLI: 50 mM KPi pH 6.5, 50 mM NaCl, 10 mM MgSO4, 1 mM TCEP, 303 K; NMR titrations: NMR buffer (composition in Supplementary Table S2, not fully given), 298 K. The following applies: protein: recombinant; tags: N-terminal His6; blunt; each strand also partly self-complementary (called self-complementary in text).

A further data set addresses T2, DinBΔPAD (Escherichia coli, UniProt Q47155 1-230).
T2 sequence: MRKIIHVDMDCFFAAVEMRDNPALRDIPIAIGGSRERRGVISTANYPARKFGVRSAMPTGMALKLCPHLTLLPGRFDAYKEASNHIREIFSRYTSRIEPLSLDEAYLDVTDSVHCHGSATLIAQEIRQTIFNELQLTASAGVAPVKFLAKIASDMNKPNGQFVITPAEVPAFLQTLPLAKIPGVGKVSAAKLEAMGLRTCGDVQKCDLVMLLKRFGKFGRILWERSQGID
The description is as above. The following applies: protein: recombinant; tags: N-terminal His6 (stop codon at 231; tag inferred from parent plasmid); blunt; each strand also partly self-complementary (called self-complementary in text).

B1: 18mer dsDNA (dsDNA)
DNA 1: TCTAGGGTCCTAGGACCC
DNA 2: GGGTCCTAGGACCCTAGA
As to B1, the binding result in the data set with DinB (DNA polymerase IV) and with DinBΔPAD was “binds” throughout.
